Measurements taken from US20250215072A1 (published 2025).
Numbering of substitutions follows the chain as printed. Read-outs that look alike come from different tables or passages of the source. Values belong to the binder of their own block, whether it stands above or below them.

Tests used:
[1] = target: hLRRC33-proTGFβ1 presented on cells (human, UniProt P01137 30-390; Q86YC3 19-692); assay: cell-based or functional assay
[2] = target: hLTBP3-proTGFβ1 as produced in the cell-based activation assay (human, UniProt P01137 30-390; Q9NS15 44-1303); assay: cell-based or functional assay
[3] = target: hGARP-proTGFβ1 presented on cells (human, UniProt P01137 30-390; Q14392 20-662); assay: cell-based or functional assay
[4] = target: hLTBP1-proTGFβ1 as produced in the cell-based activation assay (human, UniProt P01137 30-390; Q14766 347-1721); assay: cell-based or functional assay
[5] = target: T1, human GARP-proTGFβ1 complex (human, UniProt P01137 30-390; Q14392 20-627); assay: MSD-SET
T1 construct: also called hGARP-proTGFβ1; hGARP
Protocol: (§1) As an example, MSD standard plates (MSD) were coated with a 20 nM solution of monoclonal antibody in PBS for 30 min at room temperature or overnight at 4° C. […] After 20-24 hours of equilibration, the antibody-coated plate was blocked with Blocking Buffer A (MSD) for 30 minutes at room temperature and washed with wash buffer (PBS, 0.1% BSA, 0.05% Tween-20) before adding the equilibrated antibody-antigen complexes to the plate for exactly 2.5 minutes. The plate was washed again with wash buffer before adding 250 ng/ml SULFO-TAG-labeled streptavidin secondary reagent (MSD) in PBS with 0.1% BSA. After washing with wash buffer, plates were read in MSD read buffer (MSD) using the MESO QuickPlex SQ 120 (MSD). The binding data were processed by nonlinear curve fitting in Prism 7 software (Graphpad) to calculate equilibrium binding KD values.

[6] = target: T2, murine LTBP1-proTGFβ1 complex (mouse, UniProt P04202 30-390; Q8CG19 339-1712, limits assumed); assay: MSD-SET
T2 construct: also called mLTBP1-proTGFβ1
Protocol: as §1

[7] = target: rat LTBP1-proTGFβ1 complex (rat, UniProt P17246 30-390; Q00918 339-1712); assay: MSD-SET
Protocol: as §1

[8] = target: T3, human LRRC33-proTGFβ1 complex (human, UniProt P01137 30-390; Q86YC3 19-650); assay: MSD-SET
T3 construct: also called hLRRC33-proTGFβ1; hLRRC33
Protocol: as §1

[9] = target: T4, murine GARP-proTGFβ1 complex (mouse, UniProt P04202 30-390; G3XA59 18-628); assay: MSD-SET
T4 construct: Soluble murine complex; also called mGARP-proTGFβ1
Protocol: as §1

[10] = target: rat LRRC33-proTGFβ1 complex (rat, UniProt P17246 30-390; Q5BK65 25-650); assay: MSD-SET
Protocol: as §1

[11] = target: T1, human GARP-proTGFβ1 complex; assay: BLI (Octet)
Protocol: (§2) The affinity of anti-TGFβ1 antibodies was measured by Octet@ assay on human proTGFβ1 cells, while activity was measured by CAGA12 reporter cells testing human proTGFβ1 inhibition.

[12] = target: T3, human LRRC33-proTGFβ1 complex; assay: BLI (Octet)
Protocol: as §2

[13] = target: T1, human GARP-proTGFβ1 complex; assay: MSD-SET; remark: listed apart in the source
Protocol: (§3) MSD-SET assays were performed to measure affinities of the antibodies at equilibrium. Briefly, each test antibody was diluted 3-5 fold and samples were mixed with biotinylated antigen in a 48-well dish. The SET samples were equilibrated for 20-24 hours at room temperature. Meanwhile, a capture plate was coated with IgG (20 nM) and incubated overnight at 4° C. or 30 minutes at room temperature, followed by a blocking step with 5% BSA. After the capture plate was washed three times, SET samples were added and incubated for 150 seconds. The plate was washed once to remove unbound complexes. 250 ng/ml SA-Sulfotag was added then washed 3 times. 2× Read Buffer was added, and signals from the labeled bound complexes were read with the use of QuickPlex™ SQ 120 instrument.
as §1

[14] = target: T2, murine LTBP1-proTGFβ1 complex; assay: MSD-SET; remark: listed apart in the source
Protocol: as §3, §1

[15] = target: T3, human LRRC33-proTGFβ1 complex; assay: MSD-SET; remark: listed apart in the source
Protocol: as §3, §1

[16] = target: T4, murine GARP-proTGFβ1 complex; assay: MSD-SET; remark: listed apart in the source
Protocol: as §3, §1

[17] = target: T1, human GARP-proTGFβ1 complex; assay: MSD-SET, hIgG4
Protocol: as §3

[18] = target: T3, human LRRC33-proTGFβ1 complex; assay: MSD-SET, hIgG4
Protocol: as §3

hLTBP1-proTGFβ1 as produced in the cell-based activation assay, sequence (P01137 30-390 limits assumed, chain 1 of 2): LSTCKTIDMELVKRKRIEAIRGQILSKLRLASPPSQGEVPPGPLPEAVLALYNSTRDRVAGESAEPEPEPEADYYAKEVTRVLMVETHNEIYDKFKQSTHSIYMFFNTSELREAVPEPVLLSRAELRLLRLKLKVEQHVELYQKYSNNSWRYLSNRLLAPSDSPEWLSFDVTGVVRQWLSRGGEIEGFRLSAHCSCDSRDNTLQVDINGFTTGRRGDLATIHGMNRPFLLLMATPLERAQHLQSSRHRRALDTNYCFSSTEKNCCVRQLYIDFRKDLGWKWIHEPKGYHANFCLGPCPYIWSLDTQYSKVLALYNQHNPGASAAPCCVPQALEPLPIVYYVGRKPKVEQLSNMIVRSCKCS
hLTBP1-proTGFβ1 as produced in the cell-based activation assay, sequence (Q14766 347-1721 limits assumed, chain 2 of 2): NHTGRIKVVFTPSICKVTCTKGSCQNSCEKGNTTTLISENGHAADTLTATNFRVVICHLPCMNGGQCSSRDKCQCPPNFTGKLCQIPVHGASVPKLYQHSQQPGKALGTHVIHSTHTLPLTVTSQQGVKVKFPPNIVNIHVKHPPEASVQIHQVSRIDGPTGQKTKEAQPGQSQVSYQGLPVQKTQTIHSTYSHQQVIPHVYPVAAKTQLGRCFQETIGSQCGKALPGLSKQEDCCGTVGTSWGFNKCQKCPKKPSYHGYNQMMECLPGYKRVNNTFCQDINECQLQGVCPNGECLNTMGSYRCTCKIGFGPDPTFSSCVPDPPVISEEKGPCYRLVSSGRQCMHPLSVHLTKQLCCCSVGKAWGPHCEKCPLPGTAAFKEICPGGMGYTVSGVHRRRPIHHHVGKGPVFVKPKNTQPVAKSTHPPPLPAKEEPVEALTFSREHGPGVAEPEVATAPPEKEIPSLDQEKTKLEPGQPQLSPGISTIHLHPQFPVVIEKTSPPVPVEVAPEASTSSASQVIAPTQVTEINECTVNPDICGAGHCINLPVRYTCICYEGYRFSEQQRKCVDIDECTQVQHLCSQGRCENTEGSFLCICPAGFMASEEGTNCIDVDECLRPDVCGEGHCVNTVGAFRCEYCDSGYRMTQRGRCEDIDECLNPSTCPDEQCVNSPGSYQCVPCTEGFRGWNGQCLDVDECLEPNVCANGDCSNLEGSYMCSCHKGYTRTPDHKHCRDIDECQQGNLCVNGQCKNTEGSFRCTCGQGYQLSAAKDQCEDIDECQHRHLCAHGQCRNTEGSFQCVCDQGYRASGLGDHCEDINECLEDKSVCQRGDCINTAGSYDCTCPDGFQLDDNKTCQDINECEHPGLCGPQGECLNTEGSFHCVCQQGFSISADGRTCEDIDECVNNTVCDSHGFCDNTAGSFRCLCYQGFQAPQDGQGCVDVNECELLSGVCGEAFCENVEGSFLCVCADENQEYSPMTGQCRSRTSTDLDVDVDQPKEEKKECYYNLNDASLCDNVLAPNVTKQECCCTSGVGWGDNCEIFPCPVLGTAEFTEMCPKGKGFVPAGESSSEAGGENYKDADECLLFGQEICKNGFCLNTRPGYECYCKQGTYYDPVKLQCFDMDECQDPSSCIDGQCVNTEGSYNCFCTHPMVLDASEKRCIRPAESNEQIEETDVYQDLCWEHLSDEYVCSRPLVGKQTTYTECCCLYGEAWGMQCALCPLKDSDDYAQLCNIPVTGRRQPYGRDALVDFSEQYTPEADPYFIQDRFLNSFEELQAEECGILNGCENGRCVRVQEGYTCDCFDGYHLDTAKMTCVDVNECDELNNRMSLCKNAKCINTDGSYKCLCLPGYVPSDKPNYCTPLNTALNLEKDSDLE
T3 sequence (P01137 30-390 limits assumed, chain 1 of 2): as the sequence (P01137 30-390 limits assumed, chain 1 of 2) above
T3 sequence (Q86YC3 other isoform, or with tags, fused parts or gaps limits assumed, chain 2 of 2): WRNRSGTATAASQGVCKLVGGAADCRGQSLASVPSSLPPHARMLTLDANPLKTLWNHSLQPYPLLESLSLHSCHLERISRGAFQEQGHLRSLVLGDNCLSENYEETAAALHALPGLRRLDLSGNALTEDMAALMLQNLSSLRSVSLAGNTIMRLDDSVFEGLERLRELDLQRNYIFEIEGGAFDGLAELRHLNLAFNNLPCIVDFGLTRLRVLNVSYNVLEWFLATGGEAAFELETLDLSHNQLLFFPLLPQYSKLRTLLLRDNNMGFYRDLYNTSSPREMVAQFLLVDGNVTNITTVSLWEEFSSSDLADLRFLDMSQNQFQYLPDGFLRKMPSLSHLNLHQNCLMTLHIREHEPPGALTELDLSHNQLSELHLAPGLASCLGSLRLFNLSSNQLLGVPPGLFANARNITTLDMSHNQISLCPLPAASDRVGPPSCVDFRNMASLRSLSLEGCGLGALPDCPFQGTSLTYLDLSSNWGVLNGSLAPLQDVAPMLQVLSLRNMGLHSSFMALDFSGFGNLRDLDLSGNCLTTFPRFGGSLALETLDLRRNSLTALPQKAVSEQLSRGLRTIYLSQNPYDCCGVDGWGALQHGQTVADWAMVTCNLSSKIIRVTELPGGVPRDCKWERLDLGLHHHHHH
hLTBP3-proTGFβ1 as produced in the cell-based activation assay, sequence (P01137 30-390 limits assumed, chain 1 of 2): as the sequence (P01137 30-390 limits assumed, chain 1 of 2) above
hLTBP3-proTGFβ1 as produced in the cell-based activation assay, sequence (Q9NS15 44-1303 limits assumed, chain 2 of 2): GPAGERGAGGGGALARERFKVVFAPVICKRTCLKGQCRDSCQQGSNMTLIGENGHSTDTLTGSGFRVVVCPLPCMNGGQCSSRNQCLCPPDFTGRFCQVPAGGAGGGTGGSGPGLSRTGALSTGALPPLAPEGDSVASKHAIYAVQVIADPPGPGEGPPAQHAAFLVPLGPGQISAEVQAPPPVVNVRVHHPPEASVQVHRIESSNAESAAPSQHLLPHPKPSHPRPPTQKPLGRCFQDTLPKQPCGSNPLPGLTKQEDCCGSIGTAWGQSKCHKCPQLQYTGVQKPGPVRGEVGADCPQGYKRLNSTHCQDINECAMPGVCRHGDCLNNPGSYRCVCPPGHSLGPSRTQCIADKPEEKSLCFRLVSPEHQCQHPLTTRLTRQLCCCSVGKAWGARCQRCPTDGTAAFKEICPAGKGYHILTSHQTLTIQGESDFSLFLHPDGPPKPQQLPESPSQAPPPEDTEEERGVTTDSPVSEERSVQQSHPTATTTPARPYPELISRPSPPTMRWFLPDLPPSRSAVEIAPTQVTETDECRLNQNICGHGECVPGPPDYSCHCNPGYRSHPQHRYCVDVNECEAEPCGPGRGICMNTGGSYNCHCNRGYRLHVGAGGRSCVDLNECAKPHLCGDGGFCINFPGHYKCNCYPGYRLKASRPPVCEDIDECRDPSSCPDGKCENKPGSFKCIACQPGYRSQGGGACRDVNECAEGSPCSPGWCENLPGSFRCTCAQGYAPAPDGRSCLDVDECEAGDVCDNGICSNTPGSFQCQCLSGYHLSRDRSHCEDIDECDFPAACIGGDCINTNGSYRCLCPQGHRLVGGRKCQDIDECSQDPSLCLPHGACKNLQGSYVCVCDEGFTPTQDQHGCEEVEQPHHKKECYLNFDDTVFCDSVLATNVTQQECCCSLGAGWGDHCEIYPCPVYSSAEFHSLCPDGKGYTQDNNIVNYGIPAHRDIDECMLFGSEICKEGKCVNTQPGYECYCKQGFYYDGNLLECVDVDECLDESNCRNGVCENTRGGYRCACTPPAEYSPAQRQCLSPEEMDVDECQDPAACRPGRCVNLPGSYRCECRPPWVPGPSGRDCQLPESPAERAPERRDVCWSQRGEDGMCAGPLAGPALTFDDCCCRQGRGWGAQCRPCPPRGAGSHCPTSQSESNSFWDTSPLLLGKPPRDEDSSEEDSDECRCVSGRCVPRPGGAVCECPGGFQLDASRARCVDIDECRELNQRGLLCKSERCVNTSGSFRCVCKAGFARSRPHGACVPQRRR

B1: Ab6 (antibody, V domains shown)
VH: EVQLVESGGGLVQPGGSLRLSCTASGFTFSSFSMDWVRQAPGKGLEWVSYISPSADTIYYADSVKGRFTISRDNAKNTLYLQMNSLRAEDTAVYYCARGVLDYGDMLMPWGQGTLVTVSS
VL: DIQMTQSPSSLSASVGDRVTITCQASQDITNYLNWYQQKPGKAPKLLIYDASNLETGVPSRFSGSGSGTDFTFTISSLQPEDIATYYCQQADNHPPWTFGGGTKVEIKR
IC50, reporter cell assay [1]: 495 pM
IC50, reporter cell assay [2]: 821 pM
IC50, reporter cell assay [3]: 324 pM
IC50, reporter cell assay [4]: 2740 pM
Kd [5]: 27 pM
Kd [6]: 24 pM
Kd [7]: 35 pM
Kd [8]: 63 pM
Kd [9]: 21 pM
Kd [10]: 86 pM
Kd [11]: 404 pM
Kd [12]: 336 pM
Kd [13]: 27 pM
Kd [14]: 24 pM
Kd [15]: 63 pM
Kd [16]: 21 pM
Kd [17]: 27 pM
Kd [18]: 63 pM

B5: Ab22 (antibody, IgG4, V domains shown)
VH: B1 VH with T23A, S30G, D35N, S52H, P53S, S54D, D56S, T78S, M108D
VL: DIQMTQSPSSLSASVGDRVTITCQASQDITNYLNWYQQKPGKAPKLLIYDASNLETGVPSRFSGSGSGTDFTFTISSLQPEDIATYYCQQADNHPPWTFGGGTKVEIK
Kd [11]: 974 pM
Kd [12]: 415 pM
Kd [17]: 27 pM
Kd [18]: 200 pM

B6: Ab24 (antibody, IgG4, V domains shown)
VH: B1 VH with G16R, T23A, S33A, D35Y, S54D, D56S, T78S, M108D
VL: B5 VL
Kd [11]: 665 pM
Kd [12]: 410 pM
Kd [17]: 19 pM
Kd [18]: 180 pM

B8: Ab26 (antibody, IgG4, V domains shown)
VH: B1 VH with T23A, S54D, D56S, M108D
VL: B5 VL
IC50, reporter cell assay [1]: 341 pM
IC50, reporter cell assay [2]: 716 pM
IC50, reporter cell assay [3]: 262 pM
IC50, reporter cell assay [4]: 713 pM
Kd [11]: 625 pM
Kd [12]: 360 pM
Kd [17]: 14 pM
Kd [18]: 130 pM

B9: Ab29 (antibody, IgG4, V domains shown)
VH: EVQLVESGGGLVQPGRSLRLSCAASGFTFSSFAMNWVRQAPGKGLEWVSYISPDASTIYYAGSVKGRFTISRDNAKNSLYLQMNSLRAEDTAVYYCVRAVLDYGDMLDPWGQGTLVTVSS
VL: B5 VL
IC50, reporter cell assay [1]: 458 pM
IC50, reporter cell assay [2]: 803 pM
IC50, reporter cell assay [3]: 264 pM
IC50, reporter cell assay [4]: 471 pM
Kd [11]: 307 pM
Kd [12]: 302 pM
Kd [17]: 5.5 pM
Kd [18]: 43 pM

B10: Ab11 (antibody, IgG4, V domains shown)
VH: EVQLLESGGGLVQPGGSLRLSCAASGFTFRNYAMSWVRQAPGKGLEWVSSISGSGGATYYADSVKGRFTISRDNSKNTLYLQMNSLRAEDTAVYYCARVSSGHWDFDYWGQGTLVTVSS
VL: DIQLTQSPSSLSASVGDRVTITCRASQSISSYLNWYQQKPGKAPKLLIYAASNLQSGVPSRFSGSGSGTDFTLTISSLQPEDFATYYCQQTYTVPLTFGGGTKVEIK
IC50, reporter cell assay [1]: 1270 pM
IC50, reporter cell assay [2]: 1560 pM
IC50, reporter cell assay [3]: 790 pM
IC50, reporter cell assay [4]: 2950 pM
Kd [11]: 842 pM
Kd [12]: 555 pM
Kd [17]: 3000 pM
Kd [18]: 6300 pM

B11: Ab2 (antibody, V domains shown)
VH: B10 VH with R30A, N31D, S35T, S50A, G56A, Y60F
VL: DIQLTQSPSSLSASVGDRVTITCRASQSISSYLNWYQQKPGKAPKLLIYAASNLQSGVPSRFSGSGSGTDFTLTISSLQPEDFATYYCQQTYTVPLTFGGGTKVEIKR
IC50, reporter cell assay [1]: 1380 pM
IC50, reporter cell assay [2]: 867 pM
IC50, reporter cell assay [3]: 776 pM
IC50, reporter cell assay [4]: 3390 pM
Kd [11]: 778 pM
Kd [12]: 508 pM
Kd [17]: 1400 pM
Kd [18]: 3200 pM

B13: Ab20 (antibody, IgG4, V domains shown)
VH: B10 VH with R30S, N31A, S35T, S50A, A57V, F106Y
VL: B10 VL
IC50, reporter cell assay [1]: 1350 pM
IC50, reporter cell assay [2]: 1180 pM
IC50, reporter cell assay [3]: 387 pM
IC50, reporter cell assay [4]: 1850 pM
Kd [11]: 884 pM
Kd [12]: 545 pM
Kd [17]: 1100 pM
Kd [18]: 1600 pM

B14: Ab12 (antibody, IgG4, V domains shown)
VH: B10 VH with E1Q, L5V, L11V, G16R, R30S, N31D, S35V, S50A, G56F, A57T
VL: B10 VL
IC50, reporter cell assay [1]: 2430 pM
IC50, reporter cell assay [2]: 1560 pM
IC50, reporter cell assay [3]: 1080 pM
IC50, reporter cell assay [4]: 3790 pM
Kd [11]: 7010 pM
Kd [12]: 775 pM
Kd [17]: 1700 pM
Kd [18]: 3200 pM

B15: Ab19 (antibody, IgG4, V domains shown)
VH: QVQLVESGGGVVQPGRSLRLSCAASGFTFSSFAMTWVRQAPGKGLEWVSAISGSGAATYFADSVKGRFTISRDNSKNTLYLQMNSLRAEDTAVYYCARVSSGHWDFDEWGQGTLVTVSS
VL: B10 VL
IC50, reporter cell assay [1]: 401 pM
IC50, reporter cell assay [2]: 1600 pM
IC50, reporter cell assay [3]: 1340 pM
IC50, reporter cell assay [4]: 1660 pM
Kd [11]: 11200 pM
Kd [12]: 692 pM
Kd [17]: 3800 pM
Kd [18]: 5700 pM

More lines, now with the values ahead:

IC50, reporter cell assay [1]: 738 pM
IC50, reporter cell assay [2]: 1110 pM
IC50, reporter cell assay [3]: 198 pM
IC50, reporter cell assay [4]: 1560 pM
Kd [11]: 265 pM
Kd [12]: 339 pM
Kd [17]: 7.8 pM
Kd [18]: 46 pM
B2: Ab33 (antibody, IgG4, V domains shown)
VH: B1 VH with T23A, D35N, R98H, M108D
VL: B5 VL

Kd [11]: 496 pM
Kd [12]: 698 pM
Kd [17]: 15 pM
Kd [18]: 87 pM
B3: Ab32 (antibody, IgG4, V domains shown)
VH: B1 VH with T23A, D35N, L101W, Y103M, M108D
VL: B5 VL

Kd [11]: 833 pM
Kd [12]: 535 pM
Kd [17]: 22 pM
Kd [18]: 140 pM
B4: Ab30 (antibody, IgG4, V domains shown)
VH: B1 VH with T23A, S54D, D56S, T78S, V100T, M108D
VL: B5 VL

Kd [11]: 581 pM
Kd [12]: 410 pM
Kd [17]: 19 pM
Kd [18]: 96 pM
B7: Ab31 (antibody, IgG4, V domains shown)
VH: B1 VH with T23A, S54D, D56S, G99A, M108D
VL: B5 VL

IC50, reporter cell assay [1]: 5370 pM
IC50, reporter cell assay [2]: 2710 pM
IC50, reporter cell assay [3]: 3720 pM
IC50, reporter cell assay [4]: 6250 pM
Kd [11]: 7370 pM
Kd [12]: 545 pM
Kd [17]: 1100 pM
Kd [18]: 1100 pM
B12: Ab35 (antibody, IgG4, V domains shown)
VH: B10 VH with G102Y, H103L
VL: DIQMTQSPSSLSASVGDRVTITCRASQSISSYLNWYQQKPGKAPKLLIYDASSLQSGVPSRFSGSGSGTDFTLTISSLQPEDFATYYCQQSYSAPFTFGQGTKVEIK
